From paper PMC11758950

Target: T1, ELFN1-myc (mouse) (UniProt Q8C8T7)
T1 sequence: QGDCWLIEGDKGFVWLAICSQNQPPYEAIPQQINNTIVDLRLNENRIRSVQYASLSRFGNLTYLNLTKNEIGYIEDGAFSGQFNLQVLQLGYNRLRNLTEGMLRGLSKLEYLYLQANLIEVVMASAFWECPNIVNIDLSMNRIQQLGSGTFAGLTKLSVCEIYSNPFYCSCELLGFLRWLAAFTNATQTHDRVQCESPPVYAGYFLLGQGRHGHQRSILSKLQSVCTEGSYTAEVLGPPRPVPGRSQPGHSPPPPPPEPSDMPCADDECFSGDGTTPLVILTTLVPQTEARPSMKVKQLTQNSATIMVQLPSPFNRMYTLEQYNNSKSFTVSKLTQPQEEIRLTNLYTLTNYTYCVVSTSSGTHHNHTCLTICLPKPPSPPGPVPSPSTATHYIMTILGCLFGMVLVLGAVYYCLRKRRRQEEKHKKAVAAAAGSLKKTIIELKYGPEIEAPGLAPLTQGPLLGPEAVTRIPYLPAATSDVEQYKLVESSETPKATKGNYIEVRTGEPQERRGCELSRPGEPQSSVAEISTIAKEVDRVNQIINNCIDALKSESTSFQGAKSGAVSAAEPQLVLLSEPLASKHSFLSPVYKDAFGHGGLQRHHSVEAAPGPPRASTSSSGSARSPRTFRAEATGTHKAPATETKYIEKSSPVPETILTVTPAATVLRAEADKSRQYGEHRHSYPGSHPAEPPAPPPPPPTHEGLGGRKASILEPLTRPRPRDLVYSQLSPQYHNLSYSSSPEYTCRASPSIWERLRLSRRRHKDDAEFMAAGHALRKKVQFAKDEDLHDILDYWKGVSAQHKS

B1: ELFN1Δ452-Venus (domain or fragment)
chain: QGDCWLIEGDKGFVWLAICSQNQPPYEAIPQQINNTIVDLRLNENRIRSVQYASLSRFGNLTYLNLTKNEIGYIEDGAFSGQFNLQVLQLGYNRLRNLTEGMLRGLSKLEYLYLQANLIEVVMASAFWECPNIVNIDLSMNRIQQLGSGTFAGLTKLSVCEIYSNPFYCSCELLGFLRWLAAFTNATQTHDRVQCESPPVYAGYFLLGQGRHGHQRSILSKLQSVCTEGSYTAEVLGPPRPVPGRSQPGHSPPPPPPEPSDMPCADDECFSGDGTTPLVILTTLVPQTEARPSMKVKQLTQNSATIMVQLPSPFNRMYTLEQYNNSKSFTVSKLTQPQEEIRLTNLYTLTNYTYCVVSTSSGTHHNHTCLTICLPKPPSPPGPVPSPSTATHYIMTILGCLFGMVLVLGAVYYCLRKRRRQEEKHKK
- cell membrane enrichment of ELFN1Δ452-Venus (membrane against proximal cytosolic pixel intensity) with co-expression of ELFN1-myc (median 92.50% under control conditions): 129%
- percentage of cells with membrane enrichment of ELFN1Δ452-Venus when co-expressed with ELFN1-myc (0.000 without ELFN1-myc); live-cell confocal microscopy, HEK293: 33.4%
